The record followed here is US20210347867A1.

The target of this experiment is amyloid peptide (not named; Aβ1-42, AβpE3-42 and 4-42 were tested). Description: SPR (Biacore); reference not named (variants were made to raise the affinity of RHS71/RKA). (In general: Surface plasmon resonance follows binding to a sensor surface in real time, without labels.)

B1: humanized NT4X-167 RHS71/RKH (antibody, V domains shown)
VH: QVQLQESGPGLVKPSETLSLTCTVSGFSLSSYGIHWIRQPPGKGLEWIGVMWSGGITNYYPSLKSRVTISRDTSKNQVSLKLSSVTAADTAVYYCARGSRYALDYWGQGTLVTVSS
VL: DIQMTQSPSSLSASVGDRVTITCRASQDISNYLNWYQQKPGKAPKLLIYYTSRLHSGVPSRFSGSGSGTDFTLTISSLQPEDFATYYCQQGHTLPPTFGGGTKLEIK
B1 registered a fold improvement on the Biacore of 2 fold.
